Test results as given in IntAct's records for PubMed 12796778.

B1: Nuclear distribution protein nudE-like 1 (Mus musculus), Q9ERR1 (parent)
chain: MDGEDIPDFSSLKEETAYWKELSLKYKQSFQEARDELVEFQEGSRELEAELEAQLVQAEQRNRDLQADNQRLKYEVEALKEKLEHQYAQSYKQVSVLEDDLSQTRAIKEQLHKYVRELEQANDDLERAKRATIVSLEDFEQRLNQAIERNAFLESELDEKESLLVSVQRLKDEARDLRQELAVRERQQEVTRKSAPSSPTLDCEKMDSAVQASLSLPATPVGKGTENSFPSPKAIPNGFGTSPLTPSARISALNIVGDLLRKVGALESKLAACRNFAKDQASRKSYVPGSVNCGVMNSNGPECPRSGRATFFHKGAVNGFDPAPPPPGLGSSRPSSAPGMLPLSV

Variants of: B1
Settings: with 1433e_mouse Ywhae

Row | Variant | effect of a mutation on the interaction
1 | MDGEDIPDFSSLKEETAYWKELSLKYKQSFQEARDELVEFQEGSRELEAELEAQLVQAEQRNRDLQADNQRLKYEVEALKEKLEHQYAQSYKQVSVLEDDLSQTRAIKEQLHKYVRELEQANDDLERAKRATIVSLEDFEQRLNQAIERNAFLESELDEKESLLVSVQRLKDEARDLRQELAVRERQQEVTRKSAPSSPTLDCEKMDSAVQASLSLPAAPVGKGTENSFPSPKAIPNGFGTSPLTPSARISALNIVGDLLRKVGALESKLAACRNFAKDQASRKSYVPGSVNCGVMNSNGPECPRSGRATFFHKGAVNGFDPAPPPPGLGSSRPSSAPGMLPLSV [T219A] | decreasing interaction strength
2 | MDGEDIPDFSSLKEETAYWKELSLKYKQSFQEARDELVEFQEGSRELEAELEAQLVQAEQRNRDLQADNQRLKYEVEALKEKLEHQYAQSYKQVSVLEDDLSQTRAIKEQLHKYVRELEQANDDLERAKRATIVSLEDFEQRLNQAIERNAFLESELDEKESLLVSVQRLKDEARDLRQELAVRERQQEVTRKSAPSAPTLDCEKMDSAVQASLSLPAAPVGKGTENSFPAPKAIPNGFGTSPLTPSARISALNIVGDLLRKVGALESKLAACRNFAKDQASRKSYVPGSVNCGVMNSNGPECPRSGRATFFHKGAVNGFDPAPPPPGLGSSRPSSAPGMLPLSV [S198A;T219A;S231A] | disrupting interaction strength
3 | MDGEDIPDFSSLKEETAYWKELSLKYKQSFQEARDELVEFQEGSRELEAELEAQLVQAEQRNRDLQADNQRLKYEVEALKEKLEHQYAQSYKQVSVLEDDLSQTRAIKEQLHKYVRELEQANDDLERAKRATIVSLEDFEQRLNQAIERNAFLESELDEKESLLVSVQRLKDEARDLRQELAVRERQQEVTRKSAPSSPTLDCEKMDSAVQASLSLPATPVGKGTENSFPAPKAIPNGFGTSPLTPSARISALNIVGDLLRKVGALESKLAACRNFAKDQASRKSYVPGSVNCGVMNSNGPECPRSGRATFFHKGAVNGFDPAPPPPGLGSSRPSSAPGMLPLSV [S231A] | decreasing interaction strength
4 | MDGEDIPDFSSLKEETAYWKELSLKYKQSFQEARDELVEFQEGSRELEAELEAQLVQAEQRNRDLQADNQRLKYEVEALKEKLEHQYAQSYKQVSVLEDDLSQTRAIKEQLHKYVRELEQANDDLERAKRATIVSLEDFEQRLNQAIERNAFLESELDEKESLLVSVQRLKDEARDLRQELAVRERQQEVTRKSAPSAPTLDCEKMDSAVQASLSLPATPVGKGTENSFPSPKAIPNGFGTSPLTPSARISALNIVGDLLRKVGALESKLAACRNFAKDQASRKSYVPGSVNCGVMNSNGPECPRSGRATFFHKGAVNGFDPAPPPPGLGSSRPSSAPGMLPLSV [S198A] | decreasing interaction strength
